For one protein, Km results are on record in patent US5773424A, “Treatment of toxoplasmosis” (priority 1994, dated 1998).

Substrate in the data set: Nc1ncnc2c1ncn2[C@@H]1O[C@H](CO)[C@@H](O)[C@H]1O
Kind of data set: cells, lysate or membranes named. Conditions: other: adenosine as substrate; pH 8.0.

Procedure: Preparation of cytosol extracts. For the structure activity relationships studies, approximately 5×10^8 T. gondii were suspended in 1.2 ml of 50 mM N-2-hydroxyethylpiperazine-N'-2-ethanesulfonic acid (HEPES)-Cl (pH 8.0)/1 mM dithiothreitol and homogenized for 30 seconds at setting 10, using a Brinnmann Instruments Polytron homogenizer fitted with a PTA 7K1 probe. The homogenate was then centrifuged at approximately 116,000 g for 1 hour at 5° and the supernatant (cytosol extract) collected and used as the enzyme source. Fresh cytosol extracts were prepared for each experiment.
Adenosine kinase assay. T. gondii adenosine kinase activity was measured by following the formation of [^14 C]AMP from [^14 C]adenosine and ATP. […]
Reactions were started by the addition of [8-^14 C]adenosine, incubated at 37° for 10 minutes and terminated by placing the reaction tubes in a boiling water bath for 2 minutes. […] The substrate and product spots (which accounted for all of the radioactivity on the plates) were identified by UV quenching, cut out, and the radioactivity quantitated by liquid scintillation counting in 20 ml of Scintilene, using a Packard 460 scintillation counter. […] Enzyme velocity was calculated by multiplying the fraction of AMP formed from adenosine times the amount of adenosine in the assay, and dividing by the incubation time. […]

B1: T. gondii adenosine kinase (Toxoplasma gondii) (protein)
chain: MAVDSSNSATGPMRVFAIGNPILDLVAEVPSSFLDEFFLKRGDATLATPEQMRIYSTLDQFNPTSLPGGSALNSVRVVQKLLRKPGSAGYMGAIGDDPRGQVLKELCDKEGLATRFMVAPGQSTGVCAVLINEKERTLCTHLGACGSFRLPEDWTTFASGALIFYATAYTLTATPKNALEVAGYAHGIPNAIFTLNLSAPFCVELYKDAMQSLLLHTNILFGNEEEFAHLAKVHNLVAAEKTALSTANKEHAVEVCTGALRLLTAGQNTGATKLVVMTRGHNPVIAAEQTADGTVVVHEVGVPVVAAEKIVDTNGAGDAFVGGFLYALSQGKTVKQCIMCGNACAQDVIQHVGFSLSFTSLPC
Take B1: the Km (as a rule, the substrate concentration at which the rate is half of its maximum) worked out at 5 µM.
